Measurements taken from article PMC6249252, “COMP and TSP-4 interact specifically with the novel GXKGHR motif only found in fibrillar collagens” (Scientific Reports, 2018).
Read-outs that look alike come from different tables or passages of the source.

Legend:
COMP [1] = biological target: T1, COMP (Homo sapiens, UniProt P49747); experiment: ELISA-style binding assay, COMP on coated collagen model peptides / collagen; details: for effect of additive in interaction buffer on COMP binding to peptide 5: peptide 5 coated, COMP in pure TBS-T with the indicated chemical compound, compared to pure TBS (Fig. 3b); for Kd: peptide or collagen coated at 10 µg/ml (500 ng per well) on ELISA plate, pentameric COMP at indicated concentrations, 1 h, room temperature, TBS-T with 0.25% BSA, anti-COMP antibody, four-parameter logistic fit, triplicates, read-out: Apparent KD
Experimental: (§1) For ELISA-style binding assays, rat tail collagen I (BD Bioscience) or the indicated collagen model peptides were diluted in TBS and coated at 10 µg/ml (500 ng per well) overnight at 4 °C. Further steps were performed at room temperature. After washing with TBS-T (TBS containing 0.05% (vol/vol) Tween-20), plates were blocked for 1 h with 1% (wt/vol) BSA in TBS. Strep-tagged COMP was added at indicated concentrations in TBS-T containing 0.25% (wt/vol) BSA) and incubated for 1 h. For assays with addition of cations pure TBS-T was used as interaction buffer. After washing away unbound protein with TBS-T, bound COMP was detected with a 1:3000 dilution of a specific polyclonal antibody against bovine COMP in interaction buffer. The antibody was raised in rabbit against bovine COMP purified from articular cartilage and characterised before in various studies[46]–[48]. The TSP-4 antibody was raised in guinea pigs and was previously described and characterised[30],[49]. The primary antibodies were detected with an HRP–conjugated swine anti-rabbit (DAKO, P0399) or rabbit anti-guinea pig antibody (Sigma, A5545). Bound secondary antibodies were visualised with tetramethylbenzidine as substrate, the reaction was either measured directly at 370 nm or stopped with 10% H2SO4 and measured at 450 nm. Data were analysed using Origin 2017 and fitted using a four-parameter logistic model.

[2] = CD spectroscopy thermal unfolding of collagen model peptides; format: physicochemical; details: CD spectroscopy at 210 nm, heated at 1 °C/min, approx. 0.1 mg/ml, 1 mm cell, 4 parameter logistic fit
Experimental: CD spectra of the col2p5 peptide and its derivatives were measured using a Jasco J–715 equipped with a peltier-element cuvette cooler. The samples were heated at 1 °C/min in a 1 mm path length quartz cell at approx. 0.1 mg/ml. Thermal unfolding was measured in a range between 20 °C and 70–90 °C and specific ellipticity recorded at 210 nm ever 1 °C. Additionally, every 5 °C far-UV spectra (200–250 nm) were recorded in triplicates. Data was fitted with a 4 parameter logistic fit using Origin 2017[45].

COMP [3] = biological target: T1, COMP; details: read-out: dissociation constant for COMP reported for collagen II; cited from earlier work
Experimental: To elucidate the binding site of COMP on the collagen II helix we incubated pentameric COMP at 200 nM concentration with our generated collagen II foldon library (Fig. 2). […] To confirm our finding and get proper binding affinities we coated the peptide 5 and incubated it with indicated concentration of COMP (Fig. 3a). The dissociation constant for COMP and pep5 (19.3 ± 12 nM) was slightly higher than reported for collagen II (1.72 ± 0.16 nM)[10]. ...

TSP-4 = TSP-4 (UniProt P35443); experiment: ELISA-style binding assay, TSP-4 on coated GVKGHR foldon construct; details: GVKGHR foldon construct coated to ELISA plate, incubated with TSP4, anti-TSP4 antibody; fitted; triplicates
Experimental: as §1

[4] = Dynamic light scattering of COMP solution with ZnCl; format: physicochemical; details: 20 °C, cumulant radius over time
Experimental: Dynamic light scattering (DLS) was measured with a Wyatt DynaPro Nanostar using the disposable cuvettes (UVettes, Eppendorf). Data was acquired as a mean of 5 acquisitions, measured each for 5 s at a fixed temperature of 20 °C. The laser was set to auto-attenuation and the data analysed with the Dynamics software from Wyatt. Graph show the cumulant radius versus time for COMP with indicated ZnCl2 concentrations.

T1 sequence (P49747 21-757): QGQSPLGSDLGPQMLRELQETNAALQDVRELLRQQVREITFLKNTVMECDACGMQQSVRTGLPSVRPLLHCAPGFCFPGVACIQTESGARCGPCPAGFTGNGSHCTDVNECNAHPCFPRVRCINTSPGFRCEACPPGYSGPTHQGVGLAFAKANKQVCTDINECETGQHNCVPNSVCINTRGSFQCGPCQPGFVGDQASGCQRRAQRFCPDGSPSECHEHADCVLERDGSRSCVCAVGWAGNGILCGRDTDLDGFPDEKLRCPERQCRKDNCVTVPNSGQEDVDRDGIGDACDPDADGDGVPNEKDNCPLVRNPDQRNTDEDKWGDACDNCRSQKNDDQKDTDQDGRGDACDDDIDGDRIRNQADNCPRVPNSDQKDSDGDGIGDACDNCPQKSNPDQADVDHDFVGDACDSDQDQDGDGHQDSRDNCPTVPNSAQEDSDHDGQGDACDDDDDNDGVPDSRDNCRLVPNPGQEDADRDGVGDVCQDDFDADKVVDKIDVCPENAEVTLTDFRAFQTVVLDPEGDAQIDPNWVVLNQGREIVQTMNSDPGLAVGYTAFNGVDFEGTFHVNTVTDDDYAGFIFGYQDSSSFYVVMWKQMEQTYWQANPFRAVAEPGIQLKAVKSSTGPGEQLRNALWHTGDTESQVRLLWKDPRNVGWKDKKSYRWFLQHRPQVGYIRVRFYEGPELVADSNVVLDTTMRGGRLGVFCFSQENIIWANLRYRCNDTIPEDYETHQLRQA
Chain of TSP-4 (P35443 27-961): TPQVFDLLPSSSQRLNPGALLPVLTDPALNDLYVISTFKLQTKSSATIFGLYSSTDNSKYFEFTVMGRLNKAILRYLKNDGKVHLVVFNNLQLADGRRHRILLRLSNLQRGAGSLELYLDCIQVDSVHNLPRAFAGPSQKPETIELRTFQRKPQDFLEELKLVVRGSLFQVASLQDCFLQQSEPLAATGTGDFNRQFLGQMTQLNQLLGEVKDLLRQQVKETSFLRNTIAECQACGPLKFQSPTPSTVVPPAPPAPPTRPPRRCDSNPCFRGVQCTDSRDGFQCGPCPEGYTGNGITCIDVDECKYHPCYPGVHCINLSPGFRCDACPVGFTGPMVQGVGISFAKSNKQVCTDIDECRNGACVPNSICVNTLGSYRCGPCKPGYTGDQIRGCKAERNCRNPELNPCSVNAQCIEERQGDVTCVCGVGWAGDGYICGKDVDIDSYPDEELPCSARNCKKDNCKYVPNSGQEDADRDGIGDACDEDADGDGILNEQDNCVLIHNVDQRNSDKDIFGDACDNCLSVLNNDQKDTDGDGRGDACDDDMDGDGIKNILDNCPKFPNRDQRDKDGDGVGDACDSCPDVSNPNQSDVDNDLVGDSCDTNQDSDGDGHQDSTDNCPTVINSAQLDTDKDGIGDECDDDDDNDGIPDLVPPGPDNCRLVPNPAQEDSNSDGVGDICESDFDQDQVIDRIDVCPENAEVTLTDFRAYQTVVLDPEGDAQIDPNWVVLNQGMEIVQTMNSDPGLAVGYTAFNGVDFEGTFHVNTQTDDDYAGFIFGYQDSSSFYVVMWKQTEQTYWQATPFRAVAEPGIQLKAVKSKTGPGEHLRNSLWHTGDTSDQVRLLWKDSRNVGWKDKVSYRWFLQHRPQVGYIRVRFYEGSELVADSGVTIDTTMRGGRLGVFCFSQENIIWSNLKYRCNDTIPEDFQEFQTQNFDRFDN

Kd (COMP [1]) [nM]	Compound	Melting point (°C) [2] [°C]	other results
–	[Cl-].[Cl-].[Zn+2] [zinc, reference compound]	–	effect of additive in interaction buffer on COMP binding to peptide 5 (COMP [1]): increased the affinity towards the peptides
–	GLPGVKGHP	47.9 ± 0.4	–
4.1 ± 0.8	GEAGEPGERGLKGHRGFTGLQGLPGPP [peptide 52, library peptide with the C-terminal GLKGHR motif of collagen II, foldon context]	–	–
–	GLPGVPGHR	51.1 ± 0.3	–
–	O=C(O)CN(CCN(CC(=O)O)CC(=O)O)CC(=O)O [EDTA, reference compound]	–	effect of additive in interaction buffer on COMP binding to peptide 5 (COMP [1]): reduced the binding significantly
2.26 ± 0.39	GLPGPKGHR	52.5 ± 0.6	–
–	collagen II: collagen II, literature value for COMP binding	–	Kd (COMP [3]): 1.72 ± 0.16 nM
–	c1cnc2c(c1)ccc1cccnc12 [phenanthroline, 1,10-phenanthroline, reference compound]	–	effect of additive in interaction buffer on COMP binding to peptide 5 (COMP [1]): does not reduce the binding compared to pure TBS
1.61 ± 0.29	GVKGHR	56.5 ± 0.6	Kd (TSP-4): 0.56 ± 0.05 nM
–	GLPGVKGHR [unique region of pep5 in N-Strep-(GPP)6-GUEST-(GPP)6-foldon context]	48.2 ± 0.6	COMP binding to minimal motif peptides (ELISA signal) (COMP [1]; COMP at 400 nM, one-point measurements (Fig. 4a), or at indicated concentrations (Fig. 4b)): sufficient for binding
19.3 ± 12.4	GARGFPGTPGLPGVKGHRGYPGLDGAK [peptide 5, E. coli expressed collagen II library peptide in NStrep-(GPP)6-GUEST-(GPP)6-foldon context]	36.1 ± 0.5	–
–	COMP: recombinant pentameric cartilage oligomeric matrix protein, Strep-tagged, expressed in HEK293 (EBNA) cells	–	hydrodynamic radius via DLS (aggregation) ([4]; 0.0 mM versus 0.1 mM ZnCl): could not detect any difference; hydrodynamic radius via DLS (aggregation) ([4]; addition of 1 mM ZnCl): starts to aggregate dramatically
